The values below come from the supplement of paper PMC9170038.

One series deals with MS2 coat protein. The series can be described thus: apparent KD of MS2 coat protein; higher = weaker reporter binding. The note with it: Eterna round: R107. The procedure: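 RNA-MaP round R107: designed RNA switches with theophylline, tryptophan, arginine or FMN aptamers are transcribed on-chip within common flanks. They are titrated with SNAP-549-labelled MS2 coat protein in RNA-MaP buffer (100 mM Tris pH 7.5, 80 mM KCl, 4 mM MgCl2), without ligand or with the indicated ligand. Median apparent KD per design.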

Series [1] concerns K4 kissing-loop RNA reporter. The series can be described thus: apparent KD of K4 kissing-loop reporter; higher = weaker reporter binding. Conditions: Eterna round: R107. As to the method:
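RNA-MaP round R107: designed RNA switches with theophylline, tryptophan, arginine or FMN aptamers are transcribed on-chip within common flanks. They are titrated with a labelled K4 kissing-loop RNA reporter in RNA-MaP buffer (100 mM Tris pH 7.5, 80 mM KCl, 4 mM MgCl2), without ligand or with the indicated ligand. Median apparent KD per design.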

Setting [2] is: input ligand: theophylline 20 uM.
The mark [3] stands for this setting: input ligand: tryptophan 2.4 mM.
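Wherever apparent KD of K4 kissing-loop reporter is given: bound reporter read as fluorescence of individual clusters on recovered sequencing chips by microscopy, with normalized cluster intensities fitted with a binding model.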

Consider “AAAAUCCUACCUGAGGAUCACCCUGGUGAAGGAGCGCCCGAAAGGGCAGGUAGGUCGCACCUGAGGAUCACCCUGGUACCUAAAA [ArgAX 29 #DoubleMs2 #OpenEnded #AlternativeMS2]”, for which the “apparent KD of MS2 coat protein” value came to 82.6 nM in the series on MS2 coat protein (input ligand: arginine 13.2 mM); 70.6 nM in the series with MS2 coat protein (input ligand: none); 57.4 nM with MS2 coat protein (setting [2]); 48.3 nM with MS2 coat protein (input ligand: theophylline 2 mM); 61.8 nM in the series with MS2 coat protein (setting [3]).
Take “UGUACCGAGUCAGGAUAUGGCGUCGAAAGACGAAAACCAGUGAUGUUGGAAAUCUGCGAAAGCAGUCCAGAAGGGACUUGGUACU [FmnBS 25 #SwitchBubble #StaticStem #DoubleMagnetSystem]”: the “apparent KD of K4 kissing-loop reporter” value in series [1] (input ligand: FMN 200 uM) turned out to be 199 nM; in series [1] (input ligand: arginine 13.2 mM), 233 nM; in series [1] (input ligand: none), 266 nM; in series [1] (setting [2]) it was 251 nM; in series [1] (setting [3]), 251 nM.
Turning to “UGUACCGAGUCAGGAUAUGGCGUCGAAAGACGAAACCAGUGAUGUUGGAAUAUCGACGAAAGUCGUCCAGAAGGGACUUGGUACU [FmnBS 17 #SwitchBubble #StaticStem #DoubleMagnetSystem]”, the “apparent KD of K4 kissing-loop reporter” value in series [1] (input ligand: FMN 200 uM) was 153 nM; in series [1] (input ligand: arginine 13.2 mM), 264 nM; in series [1] (input ligand: none), 256 nM; in series [1] (setting [2]), 264 nM; in series [1] (setting [3]), 273 nM.
“UGUACCGAGUUAGGAUAUGUCGUCGAAAGACGAAAUGGAGUGAUGUUCCUUAAACUGCGAAAGCAGACAGAAGGGACUUGGUACU [FmnBS 29 U11]”: the “apparent KD of K4 kissing-loop reporter” value in series [1] (input ligand: FMN 200 uM) was found to be 233 nM; in series [1] (input ligand: arginine 13.2 mM), 473 nM; in series [1] (input ligand: none), 474 nM; in series [1] (setting [2]), 493 nM; in series [1] (setting [3]) it was 429 nM.
For “UGUACCGAUUCAGGAUAUGUCGUCGAAAGACGAAAUGGAGUGAUGUUCCUUAAACUGCGAAAGCAGACAGAAGGGAAUUGGUACU [FmnBS 29 U9+A77]”, the “apparent KD of K4 kissing-loop reporter” value in series [1] (input ligand: FMN 200 uM) was found to be 146 nM; in series [1] (input ligand: arginine 13.2 mM), 285 nM; in series [1] (input ligand: none), 300 nM; in series [1] (setting [2]), 318 nM; in series [1] (setting [3]) it was 284 nM.
Taken in the same sequence, the figures for “UGUAUAGUCAGAAGGAGCGUGAACGAUCGAGAAUCGAUCAGCCAGUGAUGUUGGCAGGAAUCACAGGUAGGUCGCUGACUGUACA [Arg B SS t3]” were 237 nM, 208 nM, 258 nM, 240 nM and 208 nM.
For “UGUAUGGACUGAAGGAGCGGUAGAUAAACUGAGUGAUGUUCGGCAGAUAAAGGCGCAAGCCACCAGGUAGGUCGCAGUCCAUACU [KL-SSArg B3]” the same measures were 381 nM, 274 nM, 391 nM, 408 nM and 342 nM.
Taken in the same sequence, the figures for “UGUAUGUGAUUUGAUACCAGACCAGCUGGUGGUGUAUGAGUGAUGUUCAUGUUGGUUUGGGUCCCUUGGCAGCAAAUCGCAUACU [KL-SSTheoB30]” were 14.5 nM, 7.4 nM, 11.8 nM, 8.88 nM and 11.7 nM.
On to “UGUCAUUGGUCGGCCGCCACUAGGACCGGGACUUCUCUAGUGAUGUUAGUCUGGUCGGCCGCCACUAGGACCGGGACCGAUGACU [KL-SSTryp-B14 #DoubleAptamer]”, for which the “apparent KD of K4 kissing-loop reporter” value in series [1] (input ligand: FMN 200 uM) is 561 nM; in series [1] (input ligand: arginine 13.2 mM) it was 368 nM; in series [1] (input ligand: none), 671 nM; in series [1] (setting [2]), 327 nM; in series [1] (setting [3]), 103 nM.
With “UGUGGAGGAUAUGAUACCAGCAGUGAGAGAGAGGAAGUAUAGUGAUGUUAUAUGAGAGAAUGCCCUUGGCAGCGUAUGUAGUAGG [SSTheophylB.I]”, the “apparent KD of K4 kissing-loop reporter” value is 270 nM in series [1] (input ligand: FMN 200 uM); 210 nM in series [1] (input ligand: arginine 13.2 mM); 218 nM in series [1] (input ligand: none); 208 nM in series [1] (setting [2]); 191 nM in series [1] (setting [3]).
Taken in the same sequence, the figures for “UGUGGUGUAUCCUUUAGGAGUGAUGUUUUUCGAGGACCGGUACGGCCGCCACUCGAGUGAUGAGAGCGUCGUUGUGGUGGUUUGU [#16 K4 Tryptophan A Exclusion]” were 1060 nM, 698 nM, 1190 nM, 697 nM and 730 nM.
In the case of “UGUGUUGUUGUGAUGUUUGGUGUUGCAGGGCAGGAUAUCGUAGAGGCGAGAAGGGCUUUUGUGCGGUAUGAGUGAUGUUUGUAGG [rrcgsmullin]”, the “apparent KD of K4 kissing-loop reporter” value in series [1] (input ligand: FMN 200 uM) was 197 nM; in series [1] (input ligand: arginine 13.2 mM) it was 218 nM; in series [1] (input ligand: none) it was 270 nM; in series [1] (setting [2]) it was 369 nM; in series [1] (setting [3]), 250 nM.
For “UGUGUUUACCUGACUCAGUGAUGUUGAGAAGGAGCGUGCAAAAGCACAGGUAGGUCGCUCAACCUAAAUUCAGGUGAGCACUAAA”, the “apparent KD of K4 kissing-loop reporter” value in series [1] (input ligand: FMN 200 uM) is 270 nM; in series [1] (input ligand: arginine 13.2 mM) it was 201 nM; in series [1] (input ligand: none), 255 nM; in series [1] (setting [2]), 252 nM; in series [1] (setting [3]), 264 nM.
On to “UGUGUUUACCUGACUCAGUGAUGUUGAGAAGGAGCGUGCAAAGGCACAGGUAGGUCGCUCAACCUAAAUUCAGGUGAGCACUAAA”, for which the “apparent KD of K4 kissing-loop reporter” value in series [1] (input ligand: FMN 200 uM) was determined as 246 nM; in series [1] (input ligand: arginine 13.2 mM) it was 331 nM; in series [1] (input ligand: none), 240 nM; in series [1] (setting [2]) it was 310 nM; in series [1] (setting [3]), 217 nM.
“UGUUGAGUGAUGUUCGAUGUAGUUCAUUCAGAGGAUAUAGGGUGGGCUAGAAGGCUGAAAAGUGCUUCGAGUGAUGUUCGAAGAU [Exclusion FMN A GF 7]”: the “apparent KD of K4 kissing-loop reporter” value in series [1] (input ligand: FMN 200 uM) was determined as 77.3 nM; in series [1] (input ligand: arginine 13.2 mM), 77.7 nM; in series [1] (input ligand: none) it was 99.3 nM; in series [1] (setting [2]) it was 89.5 nM; in series [1] (setting [3]), 91.1 nM.
For “UUACGCGGCAUAGAUACCAGCAAUGCAGGAUAGGUCAAGAGUGAUGUUCUGAUACUUGGGUGCCCUUGGCAGCUAGACGAUAACA [theeternabot_sameState_KL_Theo_B_46]” the same measures were 479 nM, 449 nM, 521 nM, 412 nM and 308 nM.
Consider “UUAGAAGUAUACUUCAAGAGCUAUACUGAUACCAGAGUCAAUUGACUCCCUUGGCAGCGGAUCGAGUGAUGUUCGUAAGCUCAUU [AK4 SS Theophylline A]”, for which the “apparent KD of K4 kissing-loop reporter” value in series [1] (input ligand: FMN 200 uM) came to 464 nM; in series [1] (input ligand: arginine 13.2 mM) it was 456 nM; in series [1] (input ligand: none), 583 nM; in series [1] (setting [2]), 521 nM; in series [1] (setting [3]), 502 nM.
Take “UUAGUAUAGAGAGGAUAUACCUUCCAGUGAUGUUGGAUAGAUGAAUUUAAUCAUCAAGCAUAGCUUGUAGAAGGCUCUAUACAUU [AK1 SS FMN B]”: the “apparent KD of K4 kissing-loop reporter” value in series [1] (input ligand: FMN 200 uM) was 373 nM; in series [1] (input ligand: arginine 13.2 mM), 558 nM; in series [1] (input ligand: none), 535 nM; in series [1] (setting [2]), 637 nM; in series [1] (setting [3]), 613 nM.
For “UUAUAUAAUUUGUCUUUUUUAACAUUAAGUCAGGAUAUCGUAUAUUCGAGAAGGGACACAUGCUAGUGAUGUUAGCUAUUUCUUU [JR_ExcFMNA_Sub016]” the same measures were 31.7 nM, 55.3 nM, 30.4 nM, 43 nM and 30.6 nM.
For “UUAUAUUUCAGUGAUGUUGAAAAUAUAACAGAGGAUAUGCGUUUAAGCAGAAGGCUGAAAUACUAUACUUUAAUCUAUUAAAUUU [JR_Nu_SSFMNA_Sub027]” the same measures were 195 nM, 356 nM, 350 nM, 353 nM and 323 nM.
